From the supplement of paper PMC7877785
± gives the uncertainty stated by the source.

Assay: self-splicing fitness, log relative to wild type (ln ratio); higher = more splicing; Tetrahymena group I intron in knt gene, E. coli kanamycin selection, DiMSum; sequences stand for … in CUCUCU…GGAGGGAAAAGUUAUCAGGCAUGCACCUGGUAGCUAGUCUUUAAACCAAUAGAUUGCAUCGGUUUAAAAGGCAAGACCGUCAAAUUGCGGGAAAGGGGUCAACAGCCGUUCAGUACCAAGUCUCAGGGGAAACUUUGAGAUGGCCUUGCAAAGGGUAUGGUAAUAAGCUGACGGACAUGGUCCUAACCACGCAGCCAAGUCCUAAGUCAACAGAUCUUCUGUUGAUAUGGAUGCAGUUCACAGACUAAAUGUCGGUCGGGGAAGAUGUAUUCUUCUCAUAAGAUAUAGUCGGACCUCUCCUUAAUGGGAGCUAGCGGAUGAAGUGAUGCAACACUGGAGCCGCUGGGAACUAAUUUGUAUGCGAAAGUAUAUUGAUUAGUUUUGGAGUACUCGUGGUCG
Outline: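 Pooled colonies went to amplicon sequencing on an Illumina HiSeq 2500 after six replicate transformations. The plates were LB agar with 100 μg/mL carbenicillin, 50 μM IPTG and 0.2% rhamnose, with or without 25 μg/mL kanamycin, incubated overnight at 37°C or 30°C. The E. coli BL21(DE3) library had all eight P1ex-region intron nucleotides randomised, the intron placed in the knt kanamycin-resistance gene on pET-22b(+). DiMSum fitness is the error-weighted combination of replicate fold changes, kanamycin against none, normalised to wild type.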

Sequence | self-splicing fitness (ln) (30 °C) | self-splicing fitness (ln) (37 °C)
CCGCAGCAAUAUUACGGUAC | -3.8 ± 0.17 | -2.8 ± 0.2
CCGCAGCAAUAUUACGGUAU | -4.73 ± 0.23 | -3.44 ± 0.17
CCGCAGCAAUAUUACGUACC | -3.7 ± 0.28 | -3.08 ± 0.47
CCGCAGCAAUAUUACGUAGG | -2.6 ± 0.068 | -2.95 ± 0.13
CCGCAGCAAUAUUACGUCGA | -1.06 ± 0.059 | -0.16 ± 0.069
CCGCAGCAAUAUUACGUGUU | -3.84 ± 0.14 | -3.1 ± 0.21
CCGGAGCAAUAUUACGAAAU | -3.2 ± 0.27 | -0.842 ± 0.37
CCGGAGCAAUAUUACGAACC |  | -1.97 ± 0.41
CCGGAGCAAUAUUACGAGAC | -2.99 ± 0.38 | 
CCGGAGCAAUAUUACGAGAU | -3.24 ± 0.18 | -3.52 ± 0.35
CCGGAGCAAUAUUACGAGGC | -1.99 ± 0.34 | -2.86 ± 0.38
CCGGAGCAAUAUUACGAUUA | -3.79 ± 0.37 | -1.17 ± 0.3
CCGGAGCAAUAUUACGCCUG | -2.36 ± 0.24 | -1.8 ± 0.24
CCGGAGCAAUAUUACGCGCA | -2.85 ± 0.21 | -2.29 ± 0.22
CCGGAGCAAUAUUACGCUAA | -2.65 ± 0.26 | -2.96 ± 0.35
CCGGAGCAAUAUUACGCUGA | -1.42 ± 0.29 | -1.75 ± 0.45
CCGGAGCAAUAUUACGGCAA | -1.63 ± 0.22 | -2.48 ± 0.31
CCGGAGCAAUAUUACGGGAA | -2.09 ± 0.32 | -2.13 ± 0.37
CCGGAGCAAUAUUACGGGGC | -3.78 ± 0.26 | -2.55 ± 0.44
CCGGAGCAAUAUUACGGGUU | -3.85 ± 0.39 | -2.67 ± 0.37
CCGGAGCAAUAUUACGGUAU | -4.05 ± 0.2 | -3.34 ± 0.22
CCGGAGCAAUAUUACGUUUG | -1.54 ± 0.15 | -0.756 ± 0.15
CCGUAGCAAUAUUACGAAAG | -1.37 ± 0.088 | 0.537 ± 0.1
CCGUAGCAAUAUUACGAAUA | -2.99 ± 0.28 | 
CCGUAGCAAUAUUACGCAUG | -0.123 ± 0.14 | -1.09 ± 0.13

Sequence | self-splicing fitness (ln) (30 °C) | self-splicing fitness (ln) (37 °C)
CCGUAGCAAUAUUACGCCCG | -0.871 ± 0.15 | -0.0634 ± 0.21
CCGUAGCAAUAUUACGCGGG | -4.02 ± 0.33 | -3.61 ± 0.39
CCGUAGCAAUAUUACGCGUG | -2.72 ± 0.15 | -1.22 ± 0.12
CCGUAGCAAUAUUACGCUAA | -3.32 ± 0.35 | -1.35 ± 0.36
CCGUAGCAAUAUUACGGCCA |  | -2.19 ± 0.35
CCGUAGCAAUAUUACGGGCG | -2.81 ± 0.17 | -1.34 ± 0.14
CCGUAGCAAUAUUACGGGGG | -4.09 ± 0.24 | -3.23 ± 0.26
CCGUAGCAAUAUUACGGGUU | -3.9 ± 0.17 | -1.57 ± 0.16
CCGUAGCAAUAUUACGUAGU | -3.13 ± 0.19 | -3.05 ± 0.33
CCGUAGCAAUAUUACGUCCU | -3 ± 0.24 | -2.62 ± 0.3
CCGUAGCAAUAUUACGUUAU | -2.06 ± 0.12 | -2.35 ± 0.23
CCGUAGCAAUAUUACGUUCC | -3.11 ± 0.47 | 
CCGUAGCAAUAUUACGUUUC | -3.05 ± 0.16 | -3.47 ± 0.29
CCUAAGCAAUAUUACGAACG | -1.68 ± 0.13 | -0.478 ± 0.14
CCUAAGCAAUAUUACGACCU | -3.17 ± 0.35 | -2.34 ± 0.31
CCUAAGCAAUAUUACGAGCU | -2.2 ± 0.33 | -1.93 ± 0.27
CCUAAGCAAUAUUACGAUGG | -2.4 ± 0.16 | -2.09 ± 0.17
CCUAAGCAAUAUUACGCCGA | -0.993 ± 0.49 | -1.98 ± 0.37
CCUAAGCAAUAUUACGCGCU | -2.38 ± 0.22 | -2.75 ± 0.3
CCUAAGCAAUAUUACGCUCA | -3.32 ± 0.27 | -3.18 ± 0.4
CCUAAGCAAUAUUACGGACU | -3.46 ± 0.35 | -2.29 ± 0.36
CCUAAGCAAUAUUACGGCCC | -2.37 ± 0.29 | 
CCUAAGCAAUAUUACGGGAG | -4.51 ± 0.24 | -2.93 ± 0.21
CCUAAGCAAUAUUACGGGGC | -2.45 ± 0.2 | -2.61 ± 0.22
CCUAAGCAAUAUUACGGUAC | -2.81 ± 0.22 | -2.17 ± 0.34

Sequence | self-splicing fitness (ln) (30 °C) | self-splicing fitness (ln) (37 °C)
CCUAAGCAAUAUUACGUAAU | -2.38 ± 0.18 | -0.984 ± 0.29
CCUAAGCAAUAUUACGUACC | -4.63 ± 0.46 | -2.75 ± 0.31
CCUAAGCAAUAUUACGUACG | -1.94 ± 0.13 | -0.851 ± 0.13
CCUAAGCAAUAUUACGUACU | -3.76 ± 0.43 | -3.01 ± 0.29
CCUAAGCAAUAUUACGUAUU | -4.79 ± 0.39 | -3.07 ± 0.2
CCUAAGCAAUAUUACGUCAU | -4.09 ± 0.22 | -2.83 ± 0.22
CCUAAGCAAUAUUACGUCGG | -2.3 ± 0.29 | -1.51 ± 0.24
CCUAAGCAAUAUUACGUCGU | -3.14 ± 0.39 | -2.08 ± 0.19
CCUAAGCAAUAUUACGUCUC | -3.01 ± 0.11 | -3.11 ± 0.19
CCUAAGCAAUAUUACGUCUG | -2.15 ± 0.2 | -2 ± 0.24
CCUAAGCAAUAUUACGUGAG | -1.2 ± 0.057 | -0.711 ± 0.076
CCUAAGCAAUAUUACGUUAU | -3.35 ± 0.17 | -2.85 ± 0.24
CCUAAGCAAUAUUACGUUGC | -3.6 ± 0.24 | -3.42 ± 0.34
CCUAAGCAAUAUUACGUUUC | -2.52 ± 0.2 | -2.97 ± 0.27
CCUCAGCAAUAUUACGACGA | -4.04 ± 0.33 | -2.86 ± 0.3
CCUCAGCAAUAUUACGAGUA | -3.06 ± 0.21 | -2.38 ± 0.21
CCUCAGCAAUAUUACGAUCC | -2.43 ± 0.44 | 
CCUCAGCAAUAUUACGAUCU | -3.75 ± 0.27 | -2.79 ± 0.23
CCUCAGCAAUAUUACGCCAA | -2.26 ± 0.23 | 
CCUCAGCAAUAUUACGCCGA | -3.12 ± 0.24 | -3.48 ± 0.27
CCUCAGCAAUAUUACGCUUA | -4.1 ± 0.3 | -2.11 ± 0.16
CCUCAGCAAUAUUACGCUUC | -3.45 ± 0.39 | -3.01 ± 0.33
CCUCAGCAAUAUUACGCUUU | -3.07 ± 0.14 | -2.79 ± 0.21
CCUCAGCAAUAUUACGGAGU | -2.26 ± 0.089 | -1.03 ± 0.09
CCUCAGCAAUAUUACGGCAG | -2.91 ± 0.18 | -1.15 ± 0.13

Sequence | self-splicing fitness (ln) (30 °C) | self-splicing fitness (ln) (37 °C)
CCUCAGCAAUAUUACGGCGC | -3.57 ± 0.2 | -2.45 ± 0.3
CCUCAGCAAUAUUACGGCGU | -3.42 ± 0.21 | -2.64 ± 0.27
CCUCAGCAAUAUUACGGGAG | -3.4 ± 0.14 | -2.42 ± 0.15
CCUCAGCAAUAUUACGGGAU | -4.21 ± 0.2 | -2.55 ± 0.17
CCUCAGCAAUAUUACGGGCC | -4.31 ± 0.3 | -2.77 ± 0.36
CCUCAGCAAUAUUACGGGCU | -2.67 ± 0.18 | -2.57 ± 0.25
CCUCAGCAAUAUUACGGGUG | -2.04 ± 0.06 | -0.955 ± 0.07
CCUCAGCAAUAUUACGUGGU | -3.93 ± 0.11 | -2.5 ± 0.13
CCUCAGCAAUAUUACGUGUU | -4.12 ± 0.2 | -3.41 ± 0.25
CCUCAGCAAUAUUACGUUAU | -3.74 ± 0.17 | -2.49 ± 0.17
CCUCAGCAAUAUUACGUUCG | -2.69 ± 0.077 | -0.795 ± 0.075
CCUGAGCAAUAUUACGAAUU | -2.96 ± 0.2 | -2.15 ± 0.31
CCUGAGCAAUAUUACGAUGC | -4.16 ± 0.28 | -2.75 ± 0.21
CCUGAGCAAUAUUACGCACC |  | -1.74 ± 0.4
CCUGAGCAAUAUUACGCCCU |  | -1.73 ± 0.33
CCUGAGCAAUAUUACGGAAC | -2.63 ± 0.33 | -1.66 ± 0.31
CCUGAGCAAUAUUACGGACA | -3.69 ± 0.28 | -1.64 ± 0.18
CCUGAGCAAUAUUACGGAGU | -3.26 ± 0.31 | -1.92 ± 0.18
CCUGAGCAAUAUUACGGCAC |  | -2.23 ± 0.26
CCUGAGCAAUAUUACGGCCG |  | -2.21 ± 0.4
CCUGAGCAAUAUUACGGCGG | -2.37 ± 0.13 | -1.92 ± 0.17
CCUGAGCAAUAUUACGGGAA | -2.46 ± 0.27 | -0.571 ± 0.29
CCUGAGCAAUAUUACGGGAU | -3.46 ± 0.24 | -1.63 ± 0.2
CCUGAGCAAUAUUACGGGCU | -2.51 ± 0.16 | -2.3 ± 0.32
